Test system: Escherichia coli TOP10
Assay: shrunken log2 fold change of peptide-encoding DNA abundance (4.5 h post-induction vs induction); higher = less antimicrobial activity (less host growth inhibition)
Conditions: time post-induction: 4.5 h; library: site-saturation at positions 5, 18, 19, 20
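Note: peptides expressed intracellularly from a pBAD plasmid library in pooled LB shake-flask culture, induced with 0.3% L-arabinose, DNA abundance read by NGS, three biological replicates, DESeq2 with apeglm shrinkage.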

Sequence	shrunken log2 fold change
RRIRRRPPRLPRPRPRPHNPPRP	-0.0181
RRIRQRPPRLPRPRPRPWEFPRP	-0.123
RRIRQRPPRLPRPRPRPQLAPRP	0.0428
RRIRERPPRLPRPRPRPVMNPRP	-0.0808
RRIRHRPPRLPRPRPRPVTKPRP	-0.055
RRIRQRPPRLPRPRPRPQEFPRP	-0.0104
RRIRMRPPRLPRPRPRPSGKPRP	0.222
RRIRLRPPRLPRPRPRPSHTPRP	-0.258
RRIRNRPPRLPRPRPRPAACPRP	-0.0409
RRIRERPPRLPRPRPRPSASPRP	-0.13
RRIRGRPPRLPRPRPRPELKPRP	0.336
RRIRLRPPRLPRPRPRPQHCPRP	-0.0642
RRIRSRPPRLPRPRPRPENIPRP	-0.278
RRIRYRPPRLPRPRPRPPHVPRP	-0.142
RRIRCRPPRLPRPRPRPGPSPRP	0.17
RRIRYRPPRLPRPRPRPQPQPRP	-0.0927
RRIRVRPPRLPRPRPRPMYKPRP	-0.608
RRIRNRPPRLPRPRPRPSAHPRP	-0.0549
RRIRVRPPRLPRPRPRPWALPRP	-0.112
RRIRVRPPRLPRPRPRPRGEPRP	0.254
RRIRNRPPRLPRPRPRPTRCPRP	0.15
RRIRNRPPRLPRPRPRPKYRPRP	-0.0413
RRIRSRPPRLPRPRPRPVELPRP	0.105
RRIRGRPPRLPRPRPRPTKKPRP	0.689
RRIRIRPPRLPRPRPRPPAKPRP	0.309

Sequence	shrunken log2 fold change
RRIRPRPPRLPRPRPRPHPQPRP	0.238
RRIRIRPPRLPRPRPRPQKDPRP	-0.421
RRIRIRPPRLPRPRPRPNLPPRP	-0.173
RRIRERPPRLPRPRPRPTMEPRP	-0.116
RRIRNRPPRLPRPRPRPTIRPRP	-0.0347
RRIRWRPPRLPRPRPRPPFQPRP	0.248
RRIRIRPPRLPRPRPRPKPRPRP	0.576
RRIRVRPPRLPRPRPRPQNIPRP	-0.504
RRIRTRPPRLPRPRPRPTWKPRP	0.0204
RRIRPRPPRLPRPRPRPVRHPRP	0.119
RRIRWRPPRLPRPRPRPYSEPRP	-0.0145
RRIRSRPPRLPRPRPRPLKFPRP	-0.0436
RRIRSRPPRLPRPRPRPLQVPRP	-0.157
RRIRKRPPRLPRPRPRPEDGPRP	1.9
RRIRQRPPRLPRPRPRPEIEPRP	-0.00695
RRIRDRPPRLPRPRPRPHCRPRP	-0.123
RRIRPRPPRLPRPRPRPGTWPRP	0.0893
RRIRWRPPRLPRPRPRPAGFPRP	0.272
RRIRWRPPRLPRPRPRPNYSPRP	-0.15
RRIRKRPPRLPRPRPRPSNDPRP	0.257
RRIRARPPRLPRPRPRPMANPRP	0.285
RRIRGRPPRLPRPRPRPNEYPRP	0.249
RRIRMRPPRLPRPRPRPAFTPRP	0.251
RRIRQRPPRLPRPRPRPNIIPRP	-0.247
RRIRSRPPRLPRPRPRPDIAPRP	-0.0218

Sequence	shrunken log2 fold change
RRIRKRPPRLPRPRPRPKLPPRP	0.244
RRIRCRPPRLPRPRPRPWWFPRP	0.0459
RRIRARPPRLPRPRPRPRSNPRP	0.0752
RRIRIRPPRLPRPRPRPSMFPRP	-0.801
RRIRTRPPRLPRPRPRPCHLPRP	0.0039
RRIRDRPPRLPRPRPRPRGKPRP	-0.0455
RRIRPRPPRLPRPRPRPALLPRP	0.0603
RRIRIRPPRLPRPRPRPVRIPRP	0.154
RRIRFRPPRLPRPRPRPMDLPRP	-0.161
RRIRDRPPRLPRPRPRPGHIPRP	-0.0814
RRIRRRPPRLPRPRPRPTATPRP	1.56
RRIRGRPPRLPRPRPRPRQNPRP	0.768
RRIRMRPPRLPRPRPRPMDGPRP	0.418
RRIRVRPPRLPRPRPRPVHKPRP	0.129
RRIRNRPPRLPRPRPRPWFGPRP	-0.208
RRIRFRPPRLPRPRPRPPCFPRP	-0.0777
RRIRSRPPRLPRPRPRPFFTPRP	-0.00429
RRIRFRPPRLPRPRPRPQCIPRP	-0.0639
RRIRGRPPRLPRPRPRPEFHPRP	1.85
RRIRARPPRLPRPRPRPGNEPRP	0.215
RRIRQRPPRLPRPRPRPIQNPRP	-0.11
RRIRMRPPRLPRPRPRPWISPRP	0.00707
RRIRMRPPRLPRPRPRPHETPRP	-0.00213
RRIRGRPPRLPRPRPRPTADPRP	2.65
RRIRWRPPRLPRPRPRPDGDPRP	0.36

— the supplement of paper PMC9112550, “Optimization of the antimicrobial peptide Bac7 by deep mutational scanning” (BMC Biology, 2022)
